From paper PMC11187873
Where “and” joins values, the source holds several entries; their conditions need not be identical. Equal values may be shown once.

Legend:
[1] = target: PR(T26A)‐RT model precursor (HIV‐1 isolate BH10); test: SEC-MALS
[2] = target: PR‐RT model precursor (His6‐SUMO‐Δp6*‐PR(D25A)‐RT) (HIV‐1 isolate BH10); test: SEC-MALS

With “PR(T26A)‐RT model precursor (domain or fragment)” the stoichiometry N [1] was 2 and 4.

For “PR‐RT model precursor (His6‐SUMO‐Δp6*‐PR(D25A)‐RT) (domain or fragment)”, the stoichiometry N [2] was 2 and 4.
